Values of other authors as cited in PMC7221782.
Where “and” joins values, the source holds several entries; their conditions need not be identical. Identical values can stand only once.

Biological target: Gal4 (Saccharomyces cerevisiae) (UniProt P04386)

## Gal4 (from UniProt P04386)
  Kd: 8.5 µM and 20 µM
